pKd: −log10 of the molar value. Where two headings read alike, the source gives them in different places. Each block holds one substance with its values, some of them ahead of it.
Experiments:
[1] = target: S100A4-Δ9 (S100A4 C-terminally truncated by 9 residues) (UniProt P26447); assay: NMR titration; unlabeled C-ERMAD (7.5 mM stock) added gradually to 15N-labeled S100A4-Δ9 dimer (250 μM) up to 2.1:1; 1H-15N HSQC, 700 MHz, 300 K; 20 mM MES pH 6.0, 150 mM NaCl, 10 mM CaCl2, 5 mM TCEP; ten shifting peaks fitted to a quadratic binding equation
[2] = target: S100A4 (metastasin), wild type (UniProt P26447); assay: fluorescence polarisation; competitive FP; 50 nM Fl-NMIIA complexed with 4 μM S100A4 dimer titrated with ezrin constructs; competition binding equation; triplicates
[3] = target: S100A4 (metastasin), wild type (UniProt P26447); assay: as above; remark: listed apart in the source
[4] = target: Fl-C-ERMAD^516–560 (fluorescently labeled, Cys-Lys516-Leu560) (human); assay: fluorescence polarisation; direct FP; 50 nM fluorescent tracer (Fl-C-ERMAD variants or Fl-NMIIA) titrated with S100 proteins or N-ERMAD; 20 mM HEPES pH 7.5, 150 mM NaCl, 0.1 mM TCEP, 1 mM CaCl2, 0.05% Tween-20; triplicates; quadratic binding equation

S100A4 (metastasin), wild type (UniProt P26447), sequence (P26447 whole entry): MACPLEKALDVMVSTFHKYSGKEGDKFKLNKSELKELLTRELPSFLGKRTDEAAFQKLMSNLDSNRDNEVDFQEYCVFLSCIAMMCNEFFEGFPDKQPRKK
S100A4 (metastasin), wild type (from UniProt P26447 1-101) (natural protein), sequence (P26447 whole entry): as above
Ezrin C-ERMAD (Cys-Lys516-Leu586), unlabeled, sequence (P15311 other isoform, or with tags, fused parts or gaps): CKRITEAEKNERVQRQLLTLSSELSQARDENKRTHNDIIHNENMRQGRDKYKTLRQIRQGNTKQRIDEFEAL

pKd [1]: 4.97
Substance: Ezrin C-ERMAD (Cys-Lys516-Leu586), unlabeled (from UniProt P15311 516-586) (domain or fragment)

pKd [2]: 4.56
pKd [3]: 4.54
Substance: Ezrin C-ERMAD^516–560 (Cys-Lys516-Leu560), unlabeled (domain or fragment)

pKd [4]: 5.08
Substance: S100A4 (metastasin), wild type (from UniProt P26447 1-101) (natural protein)

Source: article PMC5426754
